Reference: patent publication US20050084491A1 (Janssen / Centocor, published 2005)

Legend:
CNTO95 [1] = assay: isothermal titration calorimetry, peptide titrated into 3 µM CNTO95, 25° C.
CNTO95 [2] = assay: competitive ELISA: peptide preincubated with CNTO95, CNTO95 binding to αVβ3-coated plate detected
CNTO95 [3] = assay: flow cytometry: CNTO95 (10 ug/ml) staining of A375.S2 cells after preincubation with peptide at 100 ug/ml
CNTO95 [4] = assay: flow cytometry: CNTO95 (10 ug/ml) staining of A375.S2 cells after preincubation with peptide at 200 ug/ml
CNTO95 [5] = assay: isothermal titration calorimetry, peptide titrated into 3 µM CNTO95, 25° C. (commented: No binding)

B1: CEN2319 (peptide)
peptide: DFRSWWDLSGYR
notes: synthetic linear peptide, phage-display consensus (mimotope); also called 12p1; 12pG1
Kd (CNTO95 [1]): 4.2 µM
Molar ratio (Peptide/CNTO95) (CNTO95 [1]): 2.2
ΔH (CNTO95 [1]): -12000 cal/mol
EC50 (CNTO95 [2]): 5.8 µM
Mean Channel Fluorescence (CNTO95 [3]): 12.3
Mean Channel Fluorescence (CNTO95 [4]): 11.6

B2: CEN2322 (peptide)
peptide: DYRTAADTTGLQ
notes: synthetic peptide with the D564-Q575 segment of the mature alphaV chain; also called alphaV segment; native peptide
ΔH (CNTO95 [5]): -325 cal/mol
Mean Channel Fluorescence (CNTO95 [3]): 90.5
Mean Channel Fluorescence (CNTO95 [4]): 92.4

B3: CEN2553 (peptide)
peptide: DFRSWWDLEE
notes: synthetic peptide made from the consensus formula; C-terminal glutamates added for solubility
Mean Channel Fluorescence (CNTO95 [3]): 12.9
Mean Channel Fluorescence (CNTO95 [4]): 9.41
